{"source": "paper PMC8165797", "proteins": {"B1": {"name": "Il-DyP4 (Irpex lacteus; W410F) (protein)", "chain": "SAGNDSLPFENIQGDILVGMKKDKEKFVFFHINNATAFKSVLKTYAPANITSVATIIGPVANQPLAFVNLAFSHAGFGALNVTDDLQDTAFSDGQFKDSPNLGDDTSTWEEAFKGTNVDGVFLIGSNDESITAQYRDDLNAKFGDAWTIVYDLDSAARPGNEKGHEHFGYLDGISNPTIPGFGTPHPGQAVVDPGIIFTGRSKDPVMNRPSWALDGSFLVFRKLKQLVPEFNKYVLDNALQNQAGNLTVEEGAELLGSRMFGRWKSGAPIDLSPDFDDPALGNDIERNNNFNYSHPGSDLATDQTRCPFTAHIRKTNPRDLEGQGLFGDTFHAIRAGTPYGPEVTDYEASSNTTTIDRGLAFVEYQSVIGNGFRFQQQAFANNPRFPFSKGPSIQLGLDPVIGQGSPRETFGLDPRNASESFTVPQVIISNGGEYFFSPSITAIVEKFAA", "notes": "monomer, model residues 6-450"}, "B2": {"name": "Il-DyP4 (Irpex lacteus; W294R) (protein)", "chain": "B1 chain with W264R, F380W", "notes": "monomer, model residues 6-450"}, "B3": {"name": "Il-DyP4 (Irpex lacteus; W294F) (protein)", "chain": "B1 chain with W264F, F380W", "notes": "monomer, model residues 6-450"}, "B4": {"name": "Il-DyP4 (Irpex lacteus; W410Y) (protein)", "chain": "B1 chain with F380Y", "notes": "monomer, model residues 6-450"}, "B5": {"name": "Il-DyP4 (Irpex lacteus) (protein)", "chain": "B1 chain with F380W", "notes": "monomer, model residues 6-450"}, "B6": {"name": "Il-DyP4 (Irpex lacteus; W139F) (protein)", "chain": "B1 chain with W109F, F380W", "notes": "monomer, model residues 6-450"}, "B7": {"name": "Il-DyP4 (Irpex lacteus; W294H) (protein)", "chain": "B1 chain with W264H, F380W", "notes": "monomer, model residues 6-450"}, "B8": {"name": "Il-DyP4 (Irpex lacteus; W294Y) (protein)", "chain": "B1 chain with W264Y, F380W", "notes": "monomer, model residues 6-450"}}, "note": "Where a chain is given by its changes, count along the chain named. In names and notes the source's numbering stands."}
{"substrate": "CCn1c(=NN=c2sc3cc(S(=O)(=O)O)ccc3n2CC)sc2cc(S(=O)(=O)O)ccc21", "experiment": "purified protein", "type": "biochemical, Irpex lacteus", "details": "0.1 mM H2O2, 10 mM sodium tartrate pH 3.5, 3.3 nM enzyme", "units": {"Km": "µM", "kcat": "s ^-1"}}
{"protein": "B1", "Km": "752.00 ± 207.21", "kcat": "316.16 ± 61.61", "kcat/Km": "(4.20 ± 2.90) × 10^5 M^-1 s^-1"}
{"protein": "B2", "Km": "19.47 ± 4.41", "kcat": "52.78 ± 2.86", "kcat/Km": "(2.71 ± 0.65) × 10^6 M^-1 s^-1"}
{"protein": "B3", "Km": "71.87 ± 20.86", "kcat": "384.85 ± 42.27", "kcat/Km": "(5.35 ± 2.02) × 10^6 M^-1 s^-1"}
{"protein": "B4", "Km": "275.07 ± 77.79", "kcat": "88.38 ± 15.66", "kcat/Km": "(3.21 ± 2.01) × 10^5 M^-1 s^-1"}
{"protein": "B5", "Km": "67.29 ± 13.05", "kcat": "790 ± 56.06", "kcat/Km": "(1.17 ± 0.43) × 10^7 M^-1 s^-1"}
{"substrate": "COc1cccc(OC)c1O", "experiment": "purified protein", "type": "biochemical, Irpex lacteus", "details": "0.1 mM H2O2, 10 mM sodium tartrate pH 3.5, 3.3 nM enzyme", "units": {"Km": "µM", "kcat": "s ^-1"}}
{"protein": "B2", "Km": "1082.00 ± 283.00", "kcat": "18.28 ± 2.30", "kcat/Km": "(1.69 ± 0.81) × 10^4 M^-1 s^-1"}
{"protein": "B6", "Km": "172.71 ± 38.31", "kcat": "69.65 ± 3.46", "kcat/Km": "(4.03 ± 0.90) × 10^5 M^-1 s^-1"}
{"protein": "B3", "Km": "229.05 ± 30.79", "kcat": "71.21 ± 2.60", "kcat/Km": "(3.11 ± 0.84) × 10^5 M^-1 s^-1"}
{"protein": "B7", "Km": "42.64 ± 6.32", "kcat": "54.29 ± 1.08", "kcat/Km": "(1.27 ± 0.17) × 10^6 M^-1 s^-1"}
{"protein": "B5", "Km": "8.98 ± 1.02", "kcat": "58.99 ± 0.45", "kcat/Km": "(6.57 ± 0.44) × 10^6 M^-1 s^-1"}
{"protein": "B8", "Km": "953.00 ± 102.70", "kcat": "56.25 ± 2.81", "kcat/Km": "(5.90 ± 2.74) × 10^4 M^-1 s^-1"}
{"substrate": "Nc1c(S(=O)(=O)O)cc(Nc2cccc(S(=O)(=O)CCOS(=O)(=O)O)c2)c2c1C(=O)c1ccccc1C2=O", "experiment": "purified protein", "type": "biochemical, Irpex lacteus", "details": "0.1 mM H2O2, 10 mM sodium tartrate pH 3.5, 3.3 nM enzyme", "units": {"Km": "µM", "kcat": "s ^-1"}}
{"protein": "B3", "Km": "27.60 ± 7.70", "kcat": "46.11 ± 5.91", "kcat/Km": "(1.67 ± 0.76) × 10^6 M^-1 s^-1"}
{"protein": "B5", "Km": "139.87 ± 42.85", "kcat": "187.90 ± 37.00", "kcat/Km": "(1.34 ± 0.86) × 10^6 M^-1 s^-1"}
